Experimental data published in the supplement of paper PMC6379048.

Tests used:
Test in all cases: Kd (EC50 corrected by depletion factor)
MSI1 = MSI1 (UniProt O43347)
In short: (§1)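 Free RNA oligos (0 nM to 30 μM) were pre-incubated with HEK293-FT lysate (2.5 mg protein/well) for 1 h at 4°C, followed by 30 min at 4°C with the same 5′-amino-C6 oligos coupled to NHS-Sepharose beads. Bound proteins were quantified by label-free LC-MS/MS and normalised to the control. EC50 was derived from a four-parameter log-logistic fit, and Kd was obtained by multiplying EC50 by a protein-dependent depletion factor.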

GPATCH3 = target: T1, GPATCH3 (UniProt Q96I76)
T1 sequence: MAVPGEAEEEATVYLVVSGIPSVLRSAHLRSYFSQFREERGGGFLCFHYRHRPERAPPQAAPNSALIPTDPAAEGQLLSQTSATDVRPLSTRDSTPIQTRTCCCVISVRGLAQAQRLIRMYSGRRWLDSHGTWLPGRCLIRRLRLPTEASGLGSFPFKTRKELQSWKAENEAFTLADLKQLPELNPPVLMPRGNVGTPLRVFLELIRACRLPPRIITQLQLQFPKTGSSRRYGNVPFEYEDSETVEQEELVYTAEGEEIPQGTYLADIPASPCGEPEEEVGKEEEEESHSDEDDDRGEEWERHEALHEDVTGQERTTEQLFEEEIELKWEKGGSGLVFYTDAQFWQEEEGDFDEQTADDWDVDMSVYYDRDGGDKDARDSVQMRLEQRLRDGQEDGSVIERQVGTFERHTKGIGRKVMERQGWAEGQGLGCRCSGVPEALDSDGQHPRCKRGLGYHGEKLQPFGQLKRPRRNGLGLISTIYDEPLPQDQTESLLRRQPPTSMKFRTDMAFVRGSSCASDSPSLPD
In short: as §1

XRN1 = XRN1 (UniProt Q8IZH2)
Sequence of XRN1 (Q8IZH2 whole entry): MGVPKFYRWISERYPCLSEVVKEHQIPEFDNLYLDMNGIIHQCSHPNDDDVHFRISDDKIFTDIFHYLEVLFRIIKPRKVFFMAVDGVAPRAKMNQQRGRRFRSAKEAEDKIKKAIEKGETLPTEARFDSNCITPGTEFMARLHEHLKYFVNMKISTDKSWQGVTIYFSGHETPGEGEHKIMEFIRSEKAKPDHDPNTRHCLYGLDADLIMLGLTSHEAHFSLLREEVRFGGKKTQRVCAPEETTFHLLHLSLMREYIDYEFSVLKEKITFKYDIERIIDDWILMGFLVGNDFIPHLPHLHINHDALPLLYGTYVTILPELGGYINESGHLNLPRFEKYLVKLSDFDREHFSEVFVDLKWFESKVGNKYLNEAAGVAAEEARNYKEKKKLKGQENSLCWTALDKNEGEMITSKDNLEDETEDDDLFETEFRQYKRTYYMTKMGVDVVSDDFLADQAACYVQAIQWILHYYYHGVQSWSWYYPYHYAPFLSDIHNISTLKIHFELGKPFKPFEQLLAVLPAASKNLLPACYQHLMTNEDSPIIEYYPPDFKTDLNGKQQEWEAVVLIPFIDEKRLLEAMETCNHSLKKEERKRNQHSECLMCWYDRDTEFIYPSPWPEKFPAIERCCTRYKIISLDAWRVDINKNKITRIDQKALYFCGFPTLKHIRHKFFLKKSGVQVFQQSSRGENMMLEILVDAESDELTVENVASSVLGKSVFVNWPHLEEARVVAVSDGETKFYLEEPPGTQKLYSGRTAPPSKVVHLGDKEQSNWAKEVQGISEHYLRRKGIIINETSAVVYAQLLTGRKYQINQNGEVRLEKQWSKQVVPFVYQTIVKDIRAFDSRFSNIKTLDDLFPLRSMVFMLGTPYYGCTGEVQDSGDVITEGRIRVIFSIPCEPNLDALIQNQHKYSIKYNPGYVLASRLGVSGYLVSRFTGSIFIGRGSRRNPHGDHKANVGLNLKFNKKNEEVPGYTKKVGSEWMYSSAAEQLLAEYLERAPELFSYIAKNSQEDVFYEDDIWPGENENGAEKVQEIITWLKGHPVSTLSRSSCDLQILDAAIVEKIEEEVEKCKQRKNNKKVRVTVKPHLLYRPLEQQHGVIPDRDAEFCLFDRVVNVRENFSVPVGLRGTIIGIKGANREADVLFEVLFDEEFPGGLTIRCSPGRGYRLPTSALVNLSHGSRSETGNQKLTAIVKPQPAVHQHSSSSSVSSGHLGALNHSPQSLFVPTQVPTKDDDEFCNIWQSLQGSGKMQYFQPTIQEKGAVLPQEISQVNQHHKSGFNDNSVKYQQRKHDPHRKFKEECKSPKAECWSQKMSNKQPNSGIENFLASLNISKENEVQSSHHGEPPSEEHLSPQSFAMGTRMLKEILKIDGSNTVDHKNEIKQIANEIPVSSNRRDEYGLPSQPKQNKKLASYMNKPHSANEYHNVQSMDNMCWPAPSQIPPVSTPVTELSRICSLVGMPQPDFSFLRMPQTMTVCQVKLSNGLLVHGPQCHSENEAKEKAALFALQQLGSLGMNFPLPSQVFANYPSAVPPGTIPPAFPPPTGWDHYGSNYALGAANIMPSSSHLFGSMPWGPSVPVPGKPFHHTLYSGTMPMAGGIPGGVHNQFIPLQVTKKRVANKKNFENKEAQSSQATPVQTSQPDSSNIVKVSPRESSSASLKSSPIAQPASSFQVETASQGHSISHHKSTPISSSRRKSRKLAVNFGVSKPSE
In short: as §1

PABPC1 = PABPC1 (UniProt P11940)
Sequence of PABPC1 (P11940 whole entry): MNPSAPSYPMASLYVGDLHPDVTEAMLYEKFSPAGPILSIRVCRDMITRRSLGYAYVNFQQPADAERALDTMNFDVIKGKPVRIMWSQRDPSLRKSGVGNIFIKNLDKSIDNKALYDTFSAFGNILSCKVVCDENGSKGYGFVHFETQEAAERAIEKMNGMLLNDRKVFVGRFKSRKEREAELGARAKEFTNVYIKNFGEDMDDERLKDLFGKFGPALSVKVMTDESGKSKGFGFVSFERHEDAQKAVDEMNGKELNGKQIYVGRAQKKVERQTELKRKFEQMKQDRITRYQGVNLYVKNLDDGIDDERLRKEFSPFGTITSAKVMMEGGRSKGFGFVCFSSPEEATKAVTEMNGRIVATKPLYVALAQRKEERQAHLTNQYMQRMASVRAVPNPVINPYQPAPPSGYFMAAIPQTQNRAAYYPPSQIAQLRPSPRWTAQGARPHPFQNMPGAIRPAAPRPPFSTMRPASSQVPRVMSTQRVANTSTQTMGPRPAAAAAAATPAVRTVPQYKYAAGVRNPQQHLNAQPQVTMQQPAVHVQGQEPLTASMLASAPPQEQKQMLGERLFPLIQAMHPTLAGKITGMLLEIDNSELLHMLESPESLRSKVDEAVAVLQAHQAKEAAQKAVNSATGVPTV
In short: as §1

RBM7 = target: T2, RBM7 (UniProt Q9Y580)
T2 sequence: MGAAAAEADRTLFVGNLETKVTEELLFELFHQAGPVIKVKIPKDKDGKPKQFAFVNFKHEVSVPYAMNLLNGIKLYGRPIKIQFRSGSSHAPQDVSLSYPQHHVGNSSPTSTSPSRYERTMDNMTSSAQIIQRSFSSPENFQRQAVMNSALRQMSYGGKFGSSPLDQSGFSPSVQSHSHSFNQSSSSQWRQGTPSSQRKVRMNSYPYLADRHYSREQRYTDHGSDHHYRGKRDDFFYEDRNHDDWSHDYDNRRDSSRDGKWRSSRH
In short: as §1

LSM2 = target: T3, LSM2 (UniProt Q9Y333)
T3 sequence: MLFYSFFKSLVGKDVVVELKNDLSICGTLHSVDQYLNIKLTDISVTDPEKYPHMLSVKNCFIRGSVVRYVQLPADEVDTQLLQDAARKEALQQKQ
In short: as §1

WDR33 = target: T4, WDR33 (UniProt Q9C0J8)
T4 sequence: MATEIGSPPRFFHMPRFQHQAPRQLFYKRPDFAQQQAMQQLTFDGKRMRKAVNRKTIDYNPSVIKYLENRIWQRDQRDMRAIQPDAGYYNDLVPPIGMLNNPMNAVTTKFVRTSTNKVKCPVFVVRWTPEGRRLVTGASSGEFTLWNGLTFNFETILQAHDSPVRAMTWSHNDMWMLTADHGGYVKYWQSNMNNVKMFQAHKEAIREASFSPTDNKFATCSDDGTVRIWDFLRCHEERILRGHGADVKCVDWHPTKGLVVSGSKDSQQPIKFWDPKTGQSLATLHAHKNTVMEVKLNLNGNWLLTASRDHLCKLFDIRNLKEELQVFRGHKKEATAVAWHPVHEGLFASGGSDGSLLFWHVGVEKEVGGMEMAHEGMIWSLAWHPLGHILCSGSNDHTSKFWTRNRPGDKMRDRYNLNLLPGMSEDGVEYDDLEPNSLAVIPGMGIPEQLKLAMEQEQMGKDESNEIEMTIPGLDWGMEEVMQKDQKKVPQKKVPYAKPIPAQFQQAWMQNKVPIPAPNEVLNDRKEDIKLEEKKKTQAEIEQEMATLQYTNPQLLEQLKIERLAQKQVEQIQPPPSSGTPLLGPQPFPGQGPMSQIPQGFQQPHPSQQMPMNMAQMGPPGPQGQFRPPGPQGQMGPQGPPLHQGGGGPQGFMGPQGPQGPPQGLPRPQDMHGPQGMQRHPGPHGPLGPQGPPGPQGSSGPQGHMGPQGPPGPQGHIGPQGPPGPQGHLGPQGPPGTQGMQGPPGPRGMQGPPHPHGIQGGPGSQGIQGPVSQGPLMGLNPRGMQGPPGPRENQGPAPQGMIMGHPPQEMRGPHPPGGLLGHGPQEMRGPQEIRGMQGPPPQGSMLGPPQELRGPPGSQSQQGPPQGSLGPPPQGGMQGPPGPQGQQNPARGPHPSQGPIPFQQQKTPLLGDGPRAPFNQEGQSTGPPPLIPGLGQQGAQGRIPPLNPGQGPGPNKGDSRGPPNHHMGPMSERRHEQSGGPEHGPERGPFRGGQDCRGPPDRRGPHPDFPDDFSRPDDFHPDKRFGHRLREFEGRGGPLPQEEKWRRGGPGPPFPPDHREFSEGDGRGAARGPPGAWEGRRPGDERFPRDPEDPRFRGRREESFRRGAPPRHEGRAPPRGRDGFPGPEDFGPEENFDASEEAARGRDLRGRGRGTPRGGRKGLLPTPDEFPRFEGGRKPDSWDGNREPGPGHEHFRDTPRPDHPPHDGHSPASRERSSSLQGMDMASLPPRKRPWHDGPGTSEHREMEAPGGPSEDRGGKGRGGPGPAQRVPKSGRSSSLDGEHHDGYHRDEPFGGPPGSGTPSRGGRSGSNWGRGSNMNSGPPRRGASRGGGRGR
In short: as §1

RPS16 = RPS16 (UniProt P62249)
In short: as §1

Sequence of MSI1 (O43347 whole entry): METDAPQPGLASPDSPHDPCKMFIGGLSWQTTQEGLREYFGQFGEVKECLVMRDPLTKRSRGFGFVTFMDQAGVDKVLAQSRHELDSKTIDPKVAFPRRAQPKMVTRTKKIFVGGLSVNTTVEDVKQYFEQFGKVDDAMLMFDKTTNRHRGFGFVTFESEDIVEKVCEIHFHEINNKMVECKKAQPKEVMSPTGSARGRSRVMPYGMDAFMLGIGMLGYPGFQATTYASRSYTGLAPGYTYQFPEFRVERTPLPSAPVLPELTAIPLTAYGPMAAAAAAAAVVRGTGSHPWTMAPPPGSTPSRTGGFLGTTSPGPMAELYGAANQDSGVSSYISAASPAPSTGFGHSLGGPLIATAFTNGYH

| Sequence | Kd (MSI1) | Kd (GPATCH3) | Kd (XRN1) | Kd (PABPC1) | Kd (RBM7) | Kd (LSM2) | Kd (WDR33) | Kd (RPS16) |
| --- | --- | --- | --- | --- | --- | --- | --- | --- |
| AAUAAA | 3.11 µM | 0.196 µM | 0.197 µM | 7.49 µM | 0.156 µM | 0.0527 µM | 0.00598 µM | 0.349 µM |
| CUGUCCU |  |  |  | 0.0959 µM |  |  |  | 0.077 µM |
| UAUUUAU | 0.373 µM | 0.243 µM | 0.106 µM |  | 0.0812 µM | 0.309 µM | 0.338 µM |  |
